Measurements as given in patent US20120064001A1 (AFFITECH RESEARCH, published 2012).

Key:
[1] = biological target: T1, human VEGF-A (human, UniProt P15692-4 27-191, limits assumed); experiment: SPR (Biacore T100); IgG over 100 RU human VEGF-A on a CM5 chip
T1 construct: Sources differ between assays (Dr. Brekken; R&D Systems); also called VEGF-biotin (biotinylated form in the receptor ELISA)
Description: (§1) The background signal from a flow cell coated with BSA was subtracted from the binding curves. The binding affinity expressed as the KD was calculated by the 1:1 Fitting model using software belonging to the Biacore T100 machine.

[2] = biological target: T1, human VEGF-A; experiment: SPR (Biacore T100); IgG over 100 RU human VEGF-A on a CM5 chip; 1:1 fit; 25°C
Description: as §1

[3] = biological target: T1, human VEGF-A; experiment: SPR (Biacore T100); IgG over 100 RU human VEGF-A on a CM5 chip; 1:1 fit; 37°C
Description: as §1

[4] = biological target: T1, human VEGF-A; experiment: SPR (Biacore 3000); IgG over immobilized VEGF-A; 1:1 binding model; initial study; initial study; Biacore 3000; IgG over immobilized VEGF-A

T1 sequence (P15692 other isoform, or with tags, fused parts or gaps limits assumed): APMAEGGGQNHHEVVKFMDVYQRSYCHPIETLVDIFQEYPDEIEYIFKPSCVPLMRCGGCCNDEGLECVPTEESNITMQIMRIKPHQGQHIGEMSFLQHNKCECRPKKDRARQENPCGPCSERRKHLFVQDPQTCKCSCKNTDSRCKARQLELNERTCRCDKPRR

fold reduction of KD, 25°C versus 37°C [1]: < 2 fold | Kd [2]: 3.21 nM | Kd [3]: 5.22 nM | Kd [4]: 6.7 nM
B1: r84/PGN311 full length fully human IgG (antibody, V domains shown)
VH: QVQLVQSGAEVKKPGASVKVSCKASGGTFSSYAISWVRQAPGQGLEWMGGFDPEDGETIYAQKFQGRVTMTEDTSTDTAYMELSSLRSEDTAVYYCATGRSMVRGVIIPFNGMDVWGQGTTVTVSS
VL: not shown
notes: Human IgG1/kappa (Lonza pCon IgG1a and kappa vectors, CHO K1SV cells); also called r84 IgG; r84/PGN311 IgG
